# System: Cascade/I-C (Cas5, Cas8c, Cas7 with crRNA) (Bacillus halodurans C-125)
# Assay: EMSA?
sequence,measurement,value
"TACTTCCAATCCAATGCAGGTACCATCGAAAGTAACTCCATCCATAACTAAGCAACCTGTACTAGTAATCGAAAGCTTTTATCCACTTCCAATGTTATTA (double strand) [100 bp target, TTC PAM]",Kd,0.148 µM
